Results on 167 variants are retold here after the RNAGym collection of RNA variant scans (doi:10.7554/elife.80360).

First the molecules themselves.
B1: Hairpin Ribozyme (parent)
chain: GUCCUCUUUCACGUGCGCGUGAAAGAGAGAAGUGAACCAGAGAAACACACGUUGUGGUAUAUUACCUGGUA

Variants of B1 are the subject of this data set. Put plainly: self-cleavage, relative activity (ratio to wild type); higher = more cleavage; co-transcriptional.
In the case of U33A A59U, the self-cleavage was determined as 0.177.
For U33A A59C the value was 0.143; for G32C G56U, 0.156.
In the case of A30G C65U it was 0.125.
As for A30G U60A, the self-cleavage turned out to be 0.125.
For A30G U60G the value was 0.158; for A30U G40U, 0.129.
As to U33A G68U, the self-cleavage amounted to 0.162.
In the case of A31U C50G it was 0.152.
In the case of A31U C50A it was 0.113.
In the case of A31U C50U it was 0.24; in that of G32U C65A, 0.064; in that of G32U C65U, 0.115.
Consider G32U C65G, for which the self-cleavage amounted to 0.104.
For G32A U63G the value was 0.126; for A31U A43G, 0.134.
On to A31G C37U, for which the self-cleavage stood at 0.349.
In the case of G32A C65U it was 0.174.
For G32U G51C the value was 0.148; for A31C U70A, 0.131; for A31U C65A, 0.127.
For A31U C46A the value was 0.236; for A31U C46U, 0.205.
Take A31C U33C: the self-cleavage stood at 0.18.
A31C G34A: the self-cleavage is 0.163.
In the case of A30U U55C it was 0.179.
In the case of G32A C66G it was 0.144; in that of G32A C66A, 0.147.
For A30U G54C the value was 0.0714; for G32A A47U, 0.125; for G32A A47G, 0.133.
In the case of G32U A61C, the self-cleavage worked out at 0.157.
Take G32C U60G: the self-cleavage stood at 0.112.
In the case of G32C U60A it was 0.203.
For A30U the value was 0.142; for U33A G51C, 0.157; for G32A G54C, 0.117.
In the case of G32A A45G it was 0.117; in that of U33A A49G, 0.0427.
G32C A49U: the self-cleavage was 0.0382.
With G32C A49G, the self-cleavage was determined as 0.189.
For A31U G32U the value was 0.125.
In the case of G32C U67G it was 0.148.
For G32C U67A the value was 0.134; for A31C U62G, 0.223.
Turning to A31C G69U, the self-cleavage stood at 0.0958.
For A31C U52A the value was 0.28; for A31C U52C, 0.196.
For A31C A44C the value was 0.128.
Consider G32A U62G, for which the self-cleavage stood at 0.0972.
In the case of G32C U58G, the self-cleavage turned out to be 0.0601.
For G32C U52A the value was 0.0962.
Consider A30G G40U, for which the self-cleavage stood at 0.0805.
For G32C G34A the value was 0.132.
For A30U A47G the value was 0.0659; for A31C C50U, 0.0888.
Consider G32C G68A, for which the self-cleavage came out at 0.097.
For A30U C66U the value was 0.083; for A31U A45C, 0.191; for G32U G42U, 0.107.
For G32U G42C the value was 0.127; for A30G A64U, 0.159.
Turning to A30G A64C, the self-cleavage amounted to 0.0804.
In the case of A30G A64G it was 0.141; in that of A31U C66G, 0.0934; in that of A31G G54U, 0.223.
Take A31G G54A: the self-cleavage was 0.378.
In the case of A30G G34U it was 0.932; in that of G32C G40C, 0.109.
As to U33A G56C, the self-cleavage came to 0.11.
Take A31U A71G: the self-cleavage was 0.226.
A31U A71C: the self-cleavage came to 0.227.
For A31U A71U the value was 0.172; for G32A U67C, 0.131; for G32A U67A, 0.114.
For A31G the value was 0.729; for A31U, 0.129; for A31C, 0.131.
For U33A G42C the value was 0.14.
For the variant A30U C46G, the self-cleavage was 0.252.
In the case of A30U C46A it was 0.128; in that of A31U A49U, 0.137.
Turning to G32U G57U, the self-cleavage was 0.162.
For A30U A36G the value was 0.248; for A30U A36C, 0.0422.
In the case of A31G U62C it was 0.0965.
For A31C C37G the value was 0.146; for A31G G42U, 0.19.
A31G G42A: the self-cleavage came to 0.19.
For A30U C65A the value was 0.14; for A31U G34C, 0.
In the case of G32A G69A it was 0.0516.
In the case of A31G U53C it was 0.846; in that of A31G U53A, 0.673; in that of A31G U33G, 0.
Regarding G32U G54C, the self-cleavage turned out to be 0.1.
Turning to U33A A39U, the self-cleavage was 0.0937.
In the case of U33A A39G it was 0.122.
For A30G U62C the value was 0.13; for G32C C38A, 0.061.
In the case of U33A A71U it was 0.137; in that of U33A A71C, 0.389; in that of G32C C65A, 0.0926.
For the variant A31G A71G, the self-cleavage worked out at 0.651.
Take G32A A61G: the self-cleavage stood at 0.153.
In the case of G32A A61C it was 0.0657; in that of G32U A41C, 0.105.
In the case of G32U A41U it was 0.0937; in that of G32A G51A, 0.156.
As to A31U G56C, the self-cleavage came out at 0.137.
For G32A U70G the value was 0.165; for A30G G56U, 0.133; for A30G G56A, 0.0987.
In the case of A31G G57C it was 0.121; in that of A31G G57A, 0.0901; in that of A30U A45G, 0.236.
As for A30U A45U, the self-cleavage came out at 0.129.
G32A C38U: the self-cleavage is 0.0584.
In the case of A31C A45U, the self-cleavage came out at 0.0614.
For A31C A45G the value was 0.0362.
In the case of U33A A41U it was 0.111; in that of A31G U63A, 0.144.
Turning to A31G U63C, the self-cleavage was 0.105.
Consider U33A G57A, for which the self-cleavage is 0.137.
For U33A G57C the value was 0.157.
Turning to A30U C37A, the self-cleavage came to 0.0959.
Turning to A30U C37G, the self-cleavage worked out at 0.0899.
A30U U58G: the self-cleavage worked out at 0.155.
Consider A30U U58C, for which the self-cleavage came out at 0.107.
Take A31C A47U: the self-cleavage came to 0.192.
Take A31C A47C: the self-cleavage worked out at 0.0953.
In the case of G32A U52A it was 0.24; in that of G32A U52G, 0.141.
As for G32U A36G, the self-cleavage worked out at 0.0896.
As to G32U A36U, the self-cleavage worked out at 0.101.
In the case of A30G C46A it was 0.202; in that of G32A U60G, 0.197; in that of G32A U60C, 0.256.
Turning to A30G G69U, the self-cleavage is 0.0631.
As for A31G C50A, the self-cleavage is 0.146.
In the case of A31U A59G, the self-cleavage is 0.0459.
In the case of A31C U53C it was 0.0661.
On to A31C U53G, for which the self-cleavage was 0.176.
In the case of A31C A35G it was 0.13.
In the case of A30U U60G it was 0.0766; in that of A30U U60C, 0.306.
In the case of A30G U67G it was 0.0921.
For the variant A30G U67C, the self-cleavage stood at 0.119.
As to G32U A47C, the self-cleavage was 0.167.
For A30U C50U the value was 0.0896; for A30U C50A, 0.221.
For A31C A64C the value was 0.134; for A30G G42A, 0.113; for A30G G42C, 0.169.
Regarding G32A G42U, the self-cleavage was 0.186.
As to A30U G34A, the self-cleavage amounted to 0.216.
Regarding A30G U58G, the self-cleavage is 0.19.
In the case of A30G U58A it was 0.0366; in that of A31U G54A, 0.151; in that of A31U G54U, 0.0633.
On to A30U A64G, for which the self-cleavage worked out at 0.106.
In the case of A30U A64C it was 0.174.
Regarding A31U U58A, the self-cleavage amounted to 0.026.
With A30U A41C, the self-cleavage came to 0.256.
In the case of U33A A45C it was 0.231.
Turning to U33A A45G, the self-cleavage was 0.127.
In the case of A31C A43G it was 0.107.
